Measured values taken from article PMC6177200, “EpCAM ectodomain EpEX is a ligand of EGFR that counteracts EGF-mediated epithelial-mesenchymal transition through modulation of phospho-ERK1/2 in head and neck cancers” (PLoS Biology, 2018).
Several values for one entry are separate records, joined by “and”; a condition that tells them apart may be missing. Equal values may be shown once. Blank lines part the entries; values can stand above or below the binder they belong to.

Columns and labels:
[1] = biological target: T1, EpEX-Fc (extracellular domain of EpCAM fused to the constant region of human immunoglobulin 1) (human), P16422; assay: native gel or EMSA; purified EpEX-Fc in native versus reducing immunoblot experiments with specific antibodies; conditions: remark: other sources report otherwise
T1 chain: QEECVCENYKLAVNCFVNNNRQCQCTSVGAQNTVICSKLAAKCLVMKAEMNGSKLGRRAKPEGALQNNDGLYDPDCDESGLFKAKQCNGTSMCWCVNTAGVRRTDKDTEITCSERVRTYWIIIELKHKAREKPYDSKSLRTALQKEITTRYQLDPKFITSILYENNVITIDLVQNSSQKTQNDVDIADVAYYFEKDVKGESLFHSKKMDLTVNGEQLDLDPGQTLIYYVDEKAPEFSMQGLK

[2] = biological target: T2, EpEX (extracellular domain of EpCAM, aa 24-265), recombinant (human), P16422; assay: cross-linking; BS3 cross-linker (3.6 μg, 30 min, 37 °C); EpEX and EGF 250 pmol, EGFRex 50 pmol in 9 μl of 20 mM HEPES pH 8.0, 100 mM NaCl, 1 hr at 37 °C before; EGF added where indicated; conditions: remark: other sources report otherwise
T2 chain: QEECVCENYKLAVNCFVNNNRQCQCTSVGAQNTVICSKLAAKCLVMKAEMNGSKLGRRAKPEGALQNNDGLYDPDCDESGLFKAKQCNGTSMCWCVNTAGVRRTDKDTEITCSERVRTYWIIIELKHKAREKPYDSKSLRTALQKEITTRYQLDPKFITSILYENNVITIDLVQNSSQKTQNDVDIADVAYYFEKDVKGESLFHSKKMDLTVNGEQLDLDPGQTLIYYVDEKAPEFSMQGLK

[3] = biological target: T3, EGFRex (extracellular domain of EGFR, aa 25-642) (UniProt P00533 25-642); assay: as above; conditions: both partners purified
T3 construct: extracellular domain of epidermal growth factor receptor, aa 25-642; source: expressed and purified as reported [118]

[4] = biological target: epidermal growth factor receptor (EGFR), endogenous full-length (human (endogenous in FaDu, Cal27, HCT8), UniProt P00533 25-1210); assay: cell-based or functional assay

B1: EpEX-Fc (extracellular domain of EpCAM fused to the constant region of human immunoglobulin 1), P16422 24-265 (Fc fusion)
chain: QEECVCENYKLAVNCFVNNNRQCQCTSVGAQNTVICSKLAAKCLVMKAEMNGSKLGRRAKPEGALQNNDGLYDPDCDESGLFKAKQCNGTSMCWCVNTAGVRRTDKDTEITCSERVRTYWIIIELKHKAREKPYDSKSLRTALQKEITTRYQLDPKFITSILYENNVITIDLVQNSSQKTQNDVDIADVAYYFEKDVKGESLFHSKKMDLTVNGEQLDLDPGQTLIYYVDEKAPEFSMQGLK
modifications: here or on the partner: N-glycosylated; N-glycosylated
- stoichiometry N [1]: 2 and 3

B3: EpEX (extracellular domain of EpCAM, aa 24-265), recombinant (domain or fragment, human, UniProt P16422 24-265, looked up)
chain: QEECVCENYKLAVNCFVNNNRQCQCTSVGAQNTVICSKLAAKCLVMKAEMNGSKLGRRAKPEGALQNNDGLYDPDCDESGLFKAKQCNGTSMCWCVNTAGVRRTDKDTEITCSERVRTYWIIIELKHKAREKPYDSKSLRTALQKEITTRYQLDPKFITSILYENNVITIDLVQNSSQKTQNDVDIADVAYYFEKDVKGESLFHSKKMDLTVNGEQLDLDPGQTLIYYVDEKAPEFSMQGLK
notes: extracellular domain of EpCAM, aa 24-265; also called purified recombinant EpEX; source: Sf9 insect cells, purified as described [47]
- stoichiometry N [3]: 1 EpEX per EGFRex and 2 EpEX per EGFRex

Other lines, results leading:

- stoichiometry N [2]: 2
B2: EpEX (extracellular domain of EpCAM, aa 24-265), recombinant, P16422 24-265 (domain or fragment)
chain: QEECVCENYKLAVNCFVNNNRQCQCTSVGAQNTVICSKLAAKCLVMKAEMNGSKLGRRAKPEGALQNNDGLYDPDCDESGLFKAKQCNGTSMCWCVNTAGVRRTDKDTEITCSERVRTYWIIIELKHKAREKPYDSKSLRTALQKEITTRYQLDPKFITSILYENNVITIDLVQNSSQKTQNDVDIADVAYYFEKDVKGESLFHSKKMDLTVNGEQLDLDPGQTLIYYVDEKAPEFSMQGLK

- increase in cell numbers of serum-starved FaDu cells after 72 hr with high-dose EpEX (10 nM); blocked by Cetuximab [4]: 1.5 fold
- increase in cell numbers of serum-starved Kyse30 cells after 72 hr with EpEX-Fc (1 and 10 nM; low dose without significant effect); blocked by Cetuximab [4]: 2 fold
- pERK1/2 by immunofluorescence in cells treated for 30 min with EpEX-Fc (10 nM) compared to EGF (9 nM) [4]: 3 fold
B4: EpEX-Fc (extracellular domain of EpCAM fused to the constant region of human immunoglobulin 1) (Fc fusion, UniProt P16422 24-265, looked up)
chain: QEECVCENYKLAVNCFVNNNRQCQCTSVGAQNTVICSKLAAKCLVMKAEMNGSKLGRRAKPEGALQNNDGLYDPDCDESGLFKAKQCNGTSMCWCVNTAGVRRTDKDTEITCSERVRTYWIIIELKHKAREKPYDSKSLRTALQKEITTRYQLDPKFITSILYENNVITIDLVQNSSQKTQNDVDIADVAYYFEKDVKGESLFHSKKMDLTVNGEQLDLDPGQTLIYYVDEKAPEFSMQGLK
modifications: N-glycosylated
